According to US20200392228A1 (PANDION OPERATIONS, published 2020):
Numbering of substitutions follows the chain as printed.

T1: mouse MAdCAM expressed on cells (mouse, UniProt Q61826 22-405)
T1 construct: whole, on cells
T1 sequence (looked up): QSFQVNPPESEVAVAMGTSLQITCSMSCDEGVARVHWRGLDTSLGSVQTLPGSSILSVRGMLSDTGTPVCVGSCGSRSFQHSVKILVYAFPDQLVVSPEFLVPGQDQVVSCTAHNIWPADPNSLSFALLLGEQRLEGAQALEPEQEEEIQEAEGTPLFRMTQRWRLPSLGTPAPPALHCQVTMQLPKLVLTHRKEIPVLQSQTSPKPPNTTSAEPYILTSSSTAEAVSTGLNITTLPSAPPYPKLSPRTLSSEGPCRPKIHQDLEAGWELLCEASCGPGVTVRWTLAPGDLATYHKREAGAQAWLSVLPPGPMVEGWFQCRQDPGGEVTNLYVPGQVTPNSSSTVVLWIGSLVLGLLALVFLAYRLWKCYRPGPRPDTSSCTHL

T2: human MAdCAM expressed on cells (human, UniProt Q13477 19-382)
T2 construct: whole, on cells; also called MADCAM1
T2 sequence (looked up): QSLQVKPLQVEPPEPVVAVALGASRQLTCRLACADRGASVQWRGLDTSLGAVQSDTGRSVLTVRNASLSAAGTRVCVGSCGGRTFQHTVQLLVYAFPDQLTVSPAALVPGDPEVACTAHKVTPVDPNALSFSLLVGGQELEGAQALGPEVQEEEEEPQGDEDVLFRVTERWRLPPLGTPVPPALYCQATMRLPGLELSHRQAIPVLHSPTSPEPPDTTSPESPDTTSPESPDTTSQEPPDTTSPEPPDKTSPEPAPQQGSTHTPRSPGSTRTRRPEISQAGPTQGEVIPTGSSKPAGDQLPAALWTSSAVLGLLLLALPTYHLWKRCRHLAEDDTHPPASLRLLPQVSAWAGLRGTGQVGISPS

B1: MAdCAM antibody Clone ID 3 of Table 6 (scFv) (scFv)
scFv: QVQLVQSGAEVKKPGASVKVSCKASGYPFIGQYLHWVRQAPGQGLEWMGIINPSGGSTSYAQKFQGRVTMTRDTSTSTVYMELSSLRSEDTAVYYCAREGRLSYGMDAWGQGTLVTVSSGGGGSGGGGSGGGGSGGGGSDIQMTQSPSSLSASVGDRVTITCRASQSISSYLAWYQQKPGKAPKLLIYGASTLESGVPSRFSGSGSGTDFTLTISSLQPEDFATYYCQQTWGPPFTFGQGTKLEIK
B2: MAdCAM antibody Clone ID 40 of Table 6 (scFv) (scFv)
scFv: QVQLVQSGAEVKKPGASVKVSCKASGYTFTSYGISWVRQAPGQGLEWMGIINPRGGSTIFAQKFQGRVTMTRDTSTSTVYMELSSLRSEDTAVYYCARGTRSSGWYGWFDPWGQGTLVTVSSGGGGSGGGGSGGGGSGGGGSDIQMTQSPSSLSASVGDRVTITCRASQGIGNWLAWYQQKPGKAPKLLIYAASNLETGVPSRFSGSGSGTDFTLTISSLQPEDFATYYCQQIHSYPLTFGGGTKVEIK
B3: MAdCAM antibody Clone ID 42 of Table 6 (scFv) (scFv)
scFv: QVQLVQSGAEVKKPGSSVKVSCKASGGTLSRYGVSWVRQAPGQGLEWMGGIIPIFGTTNYAQKFQGRVTITADESTSTAYMELSSLRSEDTAVYYCARDRVYYDSSGYPTWYFDLWGRGTLVTVSSGGGGSGGGGSGGGGSGGGGSEIVMTQSPATLSVSPGERATLSCRASQSVSSSYLAWYQQKPGQAPRLLIYGASTRATGIPARFSGSGSGTEFTLTISSLQSEDFAVYYCQQYGSSPITFGQGTKVEIK
B4: MAdCAM antibody Clone ID 43 of Table 6 (scFv) (scFv)
scFv: EVQLLESGGGLVQPGGSLRLSCAASGFTFDDFAMHWVRQAPGKGLEWVSGISGNGDSRYYADSVKGRFTISRDNSKNTLYLQMNSLRAEDTAVYYCARDASYGGNYGMDVWGQGTTVTVSSGGGGSGGGGSGGGGSGGGGSDIQMTQSPSSLSASVGDRVTITCQASQDIRNYLNWYQQKPGKAPKLLIYKASTLESGVPSRFSGSGSGTDFTLTISSLQPEDFATYYCQQANSFPLTFGPGTKVDIK
B5: MAdCAM antibody Clone ID 56 of Table 6 (scFv) (scFv)
scFv: EVQLLESGGGLVQPGGSLRLSCAASGFTFDDYAMHWVRQAPGKGLEWVSAISGGGEDTYYADSVKGRFTISRDNSKNTLYLQMNSLRAEDTAVYYCARDASYGGNYGMDVWGQGTTVTVSSGGGGSGGGGSGGGGSGGGGSDIQMTQSPSSLSASVGDRVTITCQASQDIRNYLNWYQQKPGKAPKLLIYKASSLESGVPSRFSGSGSGTDFTLTISSLQPEDFATYYCQQANSYPVTFGGGTKVEIK
B6: MAdCAM antibody Clone ID 44 of Table 6 (scFv) (scFv)
scFv: EVQLVESGGGLVKPGGSLRLSCAASGFTFSSYWMSWVRQAPGKGLEWVSAIGTGGGTYYAAPVKGRFTISRDDSKNTLYLQMNSLKTEDTAVYYCAREWLVPYYGMDVWGQGTTVTVSSGGGGSGGGGSGGGGSGGGGSDIQMTQSPSSLSASVGDRVTITCRASQSISRWLAWYQQKPGKAPKLLIYGASNLQSGVPSRFSGSGSGTDFTLTISSLQPEDFATYYCQQSYSTPWTFGQGTKVEIK
B7: MAdCAM antibody Clone ID 45 of Table 6 (scFv) (scFv)
scFv: EVQLLESGGGLVQPGGSLRLSCAASGFSVSSNYMSWVRQAPGKGLEWVAGISYDGSSKPYADSVKGRFTISRDNSKNTLYLQMNSLRAEDTAVYYCARSRGIAARPLQHWGQGTLVTVSSGGGGSGGGGSGGGGSGGGGSDIVMTQSPDSLAVSLGERATINCKSSQSVLYSSNNKNYLAWYQQKPGQPPKLLIYWASTRQSGVPDRFSGSGSGTDFTLTISSLQAEDVAVYYCHQYYGHPPTFGGGTKVEIK
B8: MAdCAM antibody Clone ID 46 of Table 6 (scFv) (scFv)
scFv: B7 scFv with W196Q
B9: MAdCAM antibody Clone ID 48 of Table 6 (scFv) (scFv)
scFv: EVQLLESGGGLVQPGGSLRLSCAASGFTFSDHGMHWVRQAPGKGLEWVSVIYGGESTYYADSVKGRFTISRDNSKNTLYLQMNSLRAEDTAVYYCARDPAVAGGGIFDYWGQGTLVTVSSGGGGSGGGGSGGGGSGGGGSDIQMTQSPSSLSASVGDRVTITCRASQGISNYLAWYQQKPGKAPKLLIYDASNLETGVPSRFSGSGSGTDFTLTISSLQPEDFATYYCQQSYSTCYTFGQGTKLEIK
B10: MAdCAM antibody Clone ID 49 of Table 6 (scFv) (scFv)
scFv: QVQLVQSGAEVKKPGASVKVSCKASGDTFTGYYIHWVRQAPGQGLEWMGWINPNSGGTNYAQKFQGRVTMTRDTSTSTVYMELSSLRSEDTAVYYCARSGLWLGSYYGMDVWGQGTLVTVSSGGGGSGGGGSGGGGSGGGGSDIQMTQSPSSLSASVGDRVTITCRASQTISIWLAWYQQKPGKAPKLLIYDASTLQSGVPSRFSGSGSGTDFTLTISSLQPEDFATYYCQQYSSYPLTFGQGTKVEIK
B11: MAdCAM antibody Clone ID 50 of Table 6 (scFv) (scFv)
scFv: QVQLVQSGAEVKKPGASVKVSCKASGYTFTSYDINWVRQAPGQGLEWMGWINPNSGTTGYAQKFQGRVTMTRDTSTSTVYMELSSLRSEDTAVYYCARSPYYYYGMDVWGQGTTVTVSSGGGGSGGGGSGGGGSGGGGSDIQMTQSPSSLSASVGDRVTITCRASHFISRWVAWYQQKPGKAPKLLIYAASTLQSGVPSRFSGSGSGTDFTLTISSLQPEDFATYYCQQSYSGISFGPGTKVDIK
B12: MAdCAM antibody Clone ID 51 of Table 6 (scFv) (scFv)
scFv: EVQLLESGGGLVQPGGSLRLSCAASGFTFNNYGMNWVRQAPGKGLEWVSRINSDGSSTSYADSVKGRFTISRDNSKNTLYLQMNSLRAEDTAVYYCARGAYYYYYMDVWGQGTLVTVSSGGGGSGGGGSGGGGSGGGGSEIVMTQSPATLSVSPGERATLSCRASQSVSGSYLAWYQQKPGQAPRLLIYATSSRASGIPARFSGSGSGTEFTLTISSLQSEDFAVYYCQQYYSGLTFGQGTKVEIK
B13: MAdCAM antibody Clone ID 52 of Table 6 (scFv) (scFv)
scFv: EVQLLESGGGLVQPGGSLRLSCAASGFTFSNSDMNWVRQAPGKGLEWVAHIWNDGSQKYYADSVKGRFTISRDNSKNTLYLQMNSLRAEDTAVYYCARDRTDPGYSSAMDVWGQGTTVTVSSGGGGSGGGGSGGGGSGGGGSDIQMTQSPSSLSASVGDRVTITCRASQDIRNYLGWYQQKPGKAPKLLIYDASSLETGVPSRFSGSGSGTDFTLTISSLQPEDFATYYCQQATSLPLTFGGGTKVEIK
B14: MAdCAM antibody Clone ID 53 of Table 6 (scFv) (scFv)
scFv: QVQLVQSGAEVKKPGASVKVSCKASGYTFTSYDINWVRQAPGQGLEWMGWMNPNSGNTGYAQKFQGRVTMTRDTSTSTVYMELSSLRSEDTAVYYCAKDSDYSNLLWDYWGQGTLVTVSSGGGGSGGGGSGGGGSGGGGSDIQMTQSPSSLSASVGDRVTITCRASQDITNDLGWYQQKPGKAPKLLIYQASSLESGVPSRFSGSGSGTDFTLTISSLQPEDFATYYCQQSYTIPLTFGQGTKVEIK
B15: MAdCAM antibody Clone ID 25 of Table 6 (scFv) (scFv)
scFv: QVQLVQSGAEVKKPGASVKVSCKASGYTLTTWYMYWVRQAPGQGLEWMGWINPNRGATNYAQKFQGRVTMTRDTSTSTVYMELSSLRSEDTAVYYCAKGDLWGAMDVWGQGTLVTVSSGGGGSGGGGSGGGGSGGGGSDIQMTQSPSSLSASVGDRVTITCRASDNIGSWLAWYQQKPGKAPKLLIYAASSLQSGVPSRFSGSGSGTDFTLTISSLQPEDFATYYCQQGYSTPPTFGQGTKVEIK
B16: MAdCAM antibody Clone ID 30 of Table 6 (scFv) (scFv)
scFv: B15 scFv
B17: MAdCAM antibody Clone ID 47 of Table 6 (scFv) (scFv)
scFv: EVQLLESGGGLVQPGGSLRLSCAASGFSFSDYGMHWVRQAPGKGLEWVSAISGSGGSTYYADSVKGRFTISRDNSKNTLYLQMNSLRAEDTAVYYCARDGGWQPAAILDYWGQGTLVTVSSGGGGSGGGGSGGGGSGGGGSDIQMTQSPSSLSASVGDRVTITCRASQGISNNLNWYQQKPGKAPKLLIYDASNLETGVPSRFSGSGSGTDFTLTISSLQPEDFATYYCQQSYSTPLTFGGGTKVEIK
B18: MAdCAM antibody Clone ID 12 of Table 6 (scFv) (scFv)
scFv: QVQLVQSGAEVKKPGASVKVSCKASGYTFTGYYMHWVRQAPGQGLEWMGWIGPNSGDTNYAQKFQGRVTMTRDTSTSTVYMELSSLRSEDTAVYYCARDLDHNWYFDLWGRGTLVTVSSGGGGSGGGGSGGGGSGGGGSDIVMTQSPLSLPVTPGEPASISCRSSQSLLHSNGYNYLDWYLQKPGQSPQLLIYSSSNRAPGVPDRFSGSGSGTDFTLKISRVEAEDVGVYYCMQALHIPLTFGGGTKVEIK

Molecular target: T1, mouse MAdCAM expressed on cells
Experiment: cell binding

Row | Binder | binding result
1 | B1 | binds
2 | B2 | no binding
3 | B3 | no binding
4 | B4 | no binding
5 | B5 | no binding
6 | B6 | no binding
7 | B7 | no binding
8 | B8 | no binding
9 | B9 | no binding
10 | B10 | no binding
11 | B11 | no binding
12 | B12 | no binding
13 | B13 | no binding
14 | B14 | no binding
15 | B15 | no binding
16 | B16 | no binding
17 | B17 | no binding
18 | B18 | no binding

Molecular target: T2, human MAdCAM expressed on cells
Experiment: cell binding

Row | Binder | binding result
19 | B1 | binds
20 | B2 | binds
21 | B3 | binds
22 | B4 | binds
23 | B6 | binds
24 | B7 | binds
25 | B8 | binds
26 | B9 | binds
27 | B10 | binds
28 | B11 | binds
29 | B12 | binds
30 | B13 | binds
31 | B14 | binds
